Paper PMC10837151

Target: asymmetric nucleosome with H2B-Ser6 tri-ADP-ribose on one side only (Nuc-H2B-ADPr3) (Xenopus laevis | not stated) (UniProt P02281)
Test: cryo-EM structure; modified nucleosomes at 1 µM, ALC1 at 6 µM, ADP-BeF3 at 1 mM, incubated 60 minutes on ice before vitrification

Sequence of ALC1 (Amplified in Liver Cancer 1), wild-type construct (16-879) (Q86WJ1 16-879): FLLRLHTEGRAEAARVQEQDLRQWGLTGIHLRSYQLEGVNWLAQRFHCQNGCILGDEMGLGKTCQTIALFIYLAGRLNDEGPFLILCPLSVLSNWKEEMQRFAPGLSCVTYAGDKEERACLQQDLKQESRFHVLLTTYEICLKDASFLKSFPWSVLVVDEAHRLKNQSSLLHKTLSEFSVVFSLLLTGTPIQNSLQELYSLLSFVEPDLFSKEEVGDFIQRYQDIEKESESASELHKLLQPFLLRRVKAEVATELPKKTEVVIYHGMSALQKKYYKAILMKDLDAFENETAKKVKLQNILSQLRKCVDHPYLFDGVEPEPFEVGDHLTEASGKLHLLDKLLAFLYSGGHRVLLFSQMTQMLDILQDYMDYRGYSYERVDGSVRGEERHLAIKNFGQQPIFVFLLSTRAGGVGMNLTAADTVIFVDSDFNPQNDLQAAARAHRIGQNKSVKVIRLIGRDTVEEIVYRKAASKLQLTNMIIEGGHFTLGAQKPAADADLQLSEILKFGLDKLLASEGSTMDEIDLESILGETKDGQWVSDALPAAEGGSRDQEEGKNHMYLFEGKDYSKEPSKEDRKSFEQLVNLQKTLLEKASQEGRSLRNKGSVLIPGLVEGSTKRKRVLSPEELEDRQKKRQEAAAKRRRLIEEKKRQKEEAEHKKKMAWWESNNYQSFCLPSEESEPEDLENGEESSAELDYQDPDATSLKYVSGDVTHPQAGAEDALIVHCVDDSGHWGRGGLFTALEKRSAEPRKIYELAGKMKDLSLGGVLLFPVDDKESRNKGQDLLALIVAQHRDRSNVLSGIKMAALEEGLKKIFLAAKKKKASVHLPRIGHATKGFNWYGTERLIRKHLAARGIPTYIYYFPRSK

stoichiometry N: 1
Substance: ALC1 (Amplified in Liver Cancer 1), wild-type construct (16-879) (from UniProt Q86WJ1 16-879) (enzyme)
